Target: Rabbit skeletal actin (actin filaments) (rabbit) (UniProt P68135)
Assay: high-speed atomic force microscopy

## Recombinant human alpha-actinin-1 ABD-E235K (from UniProt P12814 1-892) (domain or fragment)
  dwell time at 1 uM ABD-E235K: 0.39 s
  dwell time at 2 uM ABD-E235K: 0.4 s
  dwell time at 3 uM ABD-E235K: 0.51 s

From doi:10.1101/2025.11.16.688667
